Earlier results, collected in paper PMC6214620.

Test system: Lys53
Settings: ferric; His-Fe-Lys converting to a water-bound, lysine-deligated state

Truncated hemoglobin THB1 (Chlamydomonas reinhardtii)
pKa: ~ 6.5
